Results from publication PMC5758903.

B1: Ref aptamer (ssDNA)
DNA: ACTGACTGACTGACTGACTGACTGACTGACTGACTGACTGACTGACTGACTGACTGACTGACTGACTGACTGACTGACT
B2: A1 -20/5' (structured_DNA)
DNA: CCTATGGTCCCCGCGTAGGTGGCAGCTCAAACCCGATTCGAGGAACATGCGTCGCAAAC

Tests used:
HisTag-PCNA [1] = target: T1, HisTag-PCNA (human, UniProt P12004 1-261); test: pull-down
[2] = target: PCNA (tag-free);DNA polymerase delta (human;human, UniProt P12004;P28340;P49005;Q15054;Q9HCU8 1-261;1-1107;1-469;1-466;1-107, |); test: EMSA
HisTag-PCNA [3] = target: T1, HisTag-PCNA; test: ITC
DNA polymerase delta = DNA polymerase delta (human, UniProt P28340;P49005;Q15054;Q9HCU8 1-1107;1-469;1-466;1-107); test: EMSA
Sequence of DNA polymerase delta (P28340 whole entry, stated change not applied, chain 1 of 4): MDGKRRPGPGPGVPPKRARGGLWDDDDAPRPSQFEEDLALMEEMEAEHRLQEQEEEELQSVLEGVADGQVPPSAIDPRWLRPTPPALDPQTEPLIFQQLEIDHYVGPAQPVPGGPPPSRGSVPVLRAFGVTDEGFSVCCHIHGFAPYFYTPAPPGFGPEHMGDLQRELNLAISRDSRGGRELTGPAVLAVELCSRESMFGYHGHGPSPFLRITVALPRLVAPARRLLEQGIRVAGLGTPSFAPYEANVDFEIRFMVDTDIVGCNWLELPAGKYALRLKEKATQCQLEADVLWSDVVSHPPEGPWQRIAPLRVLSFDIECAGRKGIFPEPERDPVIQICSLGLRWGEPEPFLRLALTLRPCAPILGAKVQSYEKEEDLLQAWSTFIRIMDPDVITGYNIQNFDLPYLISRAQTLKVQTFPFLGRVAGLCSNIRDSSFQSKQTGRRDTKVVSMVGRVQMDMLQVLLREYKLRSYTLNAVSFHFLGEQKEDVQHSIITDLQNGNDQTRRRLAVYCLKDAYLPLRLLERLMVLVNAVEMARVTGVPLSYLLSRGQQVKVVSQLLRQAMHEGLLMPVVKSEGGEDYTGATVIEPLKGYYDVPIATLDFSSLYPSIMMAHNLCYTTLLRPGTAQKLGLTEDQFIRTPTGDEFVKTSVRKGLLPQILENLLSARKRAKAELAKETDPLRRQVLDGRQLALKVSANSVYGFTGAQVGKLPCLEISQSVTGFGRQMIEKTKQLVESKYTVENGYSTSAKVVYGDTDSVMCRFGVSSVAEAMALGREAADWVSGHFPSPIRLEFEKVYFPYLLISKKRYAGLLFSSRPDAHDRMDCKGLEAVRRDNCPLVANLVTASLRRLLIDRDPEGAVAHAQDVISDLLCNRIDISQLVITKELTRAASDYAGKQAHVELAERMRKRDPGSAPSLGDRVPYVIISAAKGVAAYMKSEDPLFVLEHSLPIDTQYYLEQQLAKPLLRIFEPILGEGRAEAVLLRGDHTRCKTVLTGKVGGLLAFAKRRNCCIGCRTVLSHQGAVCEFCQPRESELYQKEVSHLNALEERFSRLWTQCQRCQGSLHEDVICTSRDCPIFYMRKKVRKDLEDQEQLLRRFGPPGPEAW
Sequence of DNA polymerase delta (P49005 whole entry, stated change not applied, chain 2 of 4): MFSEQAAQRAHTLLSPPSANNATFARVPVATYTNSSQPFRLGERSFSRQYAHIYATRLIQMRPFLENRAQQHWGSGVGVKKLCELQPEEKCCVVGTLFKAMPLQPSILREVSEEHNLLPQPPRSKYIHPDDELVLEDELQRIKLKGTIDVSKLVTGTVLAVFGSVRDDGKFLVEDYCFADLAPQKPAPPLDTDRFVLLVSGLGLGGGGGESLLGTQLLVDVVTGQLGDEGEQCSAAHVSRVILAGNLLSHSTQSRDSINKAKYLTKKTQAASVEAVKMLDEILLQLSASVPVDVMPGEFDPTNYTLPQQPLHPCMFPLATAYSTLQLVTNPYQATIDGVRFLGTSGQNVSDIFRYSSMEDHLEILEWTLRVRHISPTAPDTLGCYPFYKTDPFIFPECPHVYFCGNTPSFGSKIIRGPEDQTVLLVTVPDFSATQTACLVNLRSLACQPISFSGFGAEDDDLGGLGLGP
Sequence of DNA polymerase delta (Q15054 whole entry, stated change not applied, chain 3 of 4): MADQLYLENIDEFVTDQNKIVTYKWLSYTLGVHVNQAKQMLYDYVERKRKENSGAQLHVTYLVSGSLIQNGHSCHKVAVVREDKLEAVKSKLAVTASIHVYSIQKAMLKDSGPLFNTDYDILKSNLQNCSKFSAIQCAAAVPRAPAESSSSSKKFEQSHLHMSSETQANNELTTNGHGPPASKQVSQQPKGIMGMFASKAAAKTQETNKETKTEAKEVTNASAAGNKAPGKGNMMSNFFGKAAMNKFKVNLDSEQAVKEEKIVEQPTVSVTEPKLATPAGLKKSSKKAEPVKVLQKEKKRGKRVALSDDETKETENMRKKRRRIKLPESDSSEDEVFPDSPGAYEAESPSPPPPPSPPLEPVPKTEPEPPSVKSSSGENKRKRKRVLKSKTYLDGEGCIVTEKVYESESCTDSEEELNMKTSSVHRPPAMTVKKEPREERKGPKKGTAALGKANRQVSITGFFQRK
Sequence of DNA polymerase delta (Q9HCU8 whole entry, stated change not applied, chain 4 of 4): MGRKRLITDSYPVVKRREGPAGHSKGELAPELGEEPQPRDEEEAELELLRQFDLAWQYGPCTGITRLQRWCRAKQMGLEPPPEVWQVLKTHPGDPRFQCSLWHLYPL

HisTag-PCNA [4] = target: T1, HisTag-PCNA; test: pull-down titration

T1 sequence (P12004 whole entry): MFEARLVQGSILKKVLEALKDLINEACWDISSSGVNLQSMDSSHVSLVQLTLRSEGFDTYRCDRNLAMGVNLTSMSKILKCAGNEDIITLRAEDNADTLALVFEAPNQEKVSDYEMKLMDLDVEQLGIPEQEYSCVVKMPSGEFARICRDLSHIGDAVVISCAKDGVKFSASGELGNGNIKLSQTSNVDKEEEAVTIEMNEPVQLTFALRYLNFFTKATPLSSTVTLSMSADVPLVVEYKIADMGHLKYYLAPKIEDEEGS

| Binder | binding result (HisTag-PCNA [1]) | binding result [2] | Kd (HisTag-PCNA [3]) | binding result (DNA polymerase delta) | Kd (HisTag-PCNA [4]) |
| --- | --- | --- | --- | --- | --- |
| B1 | no binding | – | – | – | – |
| CATGCTTCCCCAGGGAGATGCCTATGGTCCCCGCGTAGG (structured_DNA) [A1 -40/3'] | no binding | – | – | – | – |
| B2 | no binding | – | – | – | – |
| CATGCTTCCCCAGGGAGATGCCTATGGTCCCCGCGTAGGTGGCAGCTCA (structured_DNA) [alpha-PCNA aptamer (A1 -30/3')] | – | binds | 2 ± 0.64 µM | no binding | 5.1 ± 0.59 µM |
